Measurements: article doi:10.1101/2021.08.05.455185 (bioRxiv, 2021)
Where two headings read alike, the source gives them in different places.

What was measured:
SEC [1] = molecular target: the molecule itself; test: SEC
SEC [2] = molecular target: the molecule itself; test: SEC; remark: listed apart in the source

B1: Mycobacterium smegmatis guanosine 5'-monophosphate reductase (Msm GMPR), product of the guaB1 gene (enzyme, UniProt A0QYE8 1-478, looked up)
chain: MRFLDGHTPAYDLTYNDVFVVPGRSDVASRFDVDLSTVDGSGTTIPVVVANMTAVAGRRMAETVARRGGIVVLPQDLPITAVSETVDFVKSRDLVVDTPVTLSPEDSVSDANALLHKRAHGAAVVVFEGRPIGLVTEANCAGVDRFARVRDIALSDFVTAPVGTDPREVFDLLEHAPIDVAVMTAPDGTLAGVLTRTGAIRAGIYTPAVDAKGRLRIAAAVGINGDVGAKAQALAEAGADLLVIDTAHGHQAKMLDAIKAVASLDLGLPLVAGNVVSAEGTRDLIEAGASIVKVGVGPGAMCTTRMMTGVGRPQFSAVVECAAAARQLGGHVWADGGVRHPRDVALALAAGASNVMIGSWFAGTYESPGDLLFDRDDRPYKESYGMASKRAVAARTAGDSSFDRARKGLFEEGISTSRMSLDPARGGVEDLLDHITSGVRSTCTYVGAANLPELHEKVVLGVQSAAGFAEGHPLPAGW
SEC [1]
  stoichiometry N: 4
SEC [2]
  stoichiometry N: 8
